Biological target: FMDV A2001 Argentina capsid protomer (VP0, VP3 and VP1 cut from the polyprotein P12A by protease 3C) (Foot-and-mouth disease virus, serotype A, A2001 Argentina strain)
Assay: sucrose gradient ultracentrifugation with ELISA of the fractions

FMDV A2001 Argentina capsid protomer (VP0, VP3 and VP1 cut from the polyprotein P12A by protease 3C) (complex)
percent of the antigen present as complete empty capsids (75s): 84%

Reference: PMC7538550
